Laboratory results from the DeepSol protein solubility set.

Experiment: soluble on expression in E. coli; label from the status in PepcDB or PDB records

Sequence | soluble on expression in E. coli
MSLRITTLEELLEALDELFDDGSDLTRRGAQDPWERVFSQPGHPLASDLPDACLVDWTRQGLLPSGDGLTALDLGCGLGRNARWLARQGYAVTGLDLSPYAVGQARERTPGPDIRYLEGDVLRDPIPGGPFDVVYDSGCFHHLPPHRRLSYLHTLGQVLRPGGWFGLCTFAWGRMGSAKSDLELLRQGQLEGGVGYTLDDLREMFGGLDFVTGSLLSELEPASEPVFQMDFLQAALFRREGHHHHHH | soluble
MSLRLALRQVDGAALALRRCGEAWAGQDVRIAYPPSHGCWLKVAGADGSWQGWLQPRAWLRHMAPELASLASAAGMDDRLSELIAACEAPLSWPVADMPLGRIVAGERREGSQLPQRPMLRMDTPQGEVWLEKAPAPAEAARDRVPGWLPMPLRFLLGDSMVSPSLLRRAKAGDVLLISRPAQTVSCNGRAIGTYQWTEEGIIMEWQNEMAAAAETRPLADLDRLPVRLEFVLQQSEVTLDELRELCRSNVLPLSADAERRVELRANGALLGRGELVQLDGRLGVEVAQWLGGSGDVEEGHHHHHH | soluble
MSLRLKILIKLSGAGMSADSSEPFSNQFLETVIAQLKQLVPNYQIGIVIGGGNIMRGKSCSDYNITEIAGHHLGIMATVINGAFLKAKFDSHKLNSTLLSAVSCPSLATHIVSQATIDDAFKNHDIVIFAGGTGNPYFSTDTAVALRATQMQADIILIGKNGVDGVYTADPKKDKHAKFLASLTYAEAIKNDLQIMDITAFTMCKENNLKVIIFNINAEHAIIKALSKQGKYTLIEKEGHHHHHH | soluble
MSLRLKVSFQAMESTVPLNYNYFLSSFIYKRLASQNENFARFLHEKGYGKRFKFFTFSQLFFENSRVSGERIFIFPGKGWWYISSPVVEFVRYMFSSLSEDPVIRVGKTEFIVKSIDIENSLPDQSEYHFVMLSPLVVSVPEENNGKLYHRYLHPGEEEFYEVFRKNLMKKYRAFYGKDPEGTVEVIPDWDYIKSRHRITKRIKLKNAFVRAVVFPFKIRGEKKLVEIGYEAGFGEKNSMGFGMVALKKYEREGHHHHHH | soluble
MSLRNQSKMPLVERLDAHAKSCPISLHVPGHKSGAIYPDAWQKLLKWDVTEITGMDDLHHPEDVILEAEELLAECYGSKKSYFLVNGTSGGNVAVIMATLKRGEKVLVPRDAHKSILHGIELAGGEPIFLTPATNKEVGVASGVTTELLEETLHNHPDVKLCIFTYPSYYGTTFNLQKCIRIAHDFGAVVFVDEAHGAHFLTSSEFPKSAVELGADVVVQSAHKTLPALTMGSYLHVVNDLPIFEKLAYYLQVFQTSSPSYLIMASLDAARKYVATYTAADVEAFWKMRARWIKWLTKNKFEVILPDDPLKIIVRKTGYTGYELQAIFEESSYFPELADESQVLLILPLIKKGIDFTPISRIHSPMKKEIAKEPYEMSTPCASGLALTYEEMHARATEFVLLDEATTRVSAETISLYPPGIPAIIRGEGITEKHIRELKNIRTRHYQGGEKLAENYIRVFREGHHHHHH | soluble
MSLRPSLDAWTKMECVMVKIKTSDGLEGWGEAFGHVMAPGTEAVINQILAPMLVGKDSVAINHRVAEMERPLHGLGRSGPVMYGLSAIDTALWDLAAQRANLPLFKFLGGDSGVLTKYASLMRYGGDTDAVAQNVERARSYGFRTIKLHETTIPAFRAARNAVDFDDKICLDVNCPWTVSEARDVAQEILEDGFHWLEEPIWPPEDFEGLAEVRLEGVPISAGENITTLHEFKLALETEAVDNLQPSVTKCGGVSMMRKIFSLSEVYPVTVIPHCFYWGPGYHATAHLAASCLNSTPLETAFITFAVEPHNLFNSHSDKVTLDDTPGLGFNANWEALDQFIISTNEVTEGHHHHHH | soluble
MSLRPTIYDVAKAAGVSKSLVSLVLRGSPNVSKESEAAVKTAIKKLNYQPNRAASDLAAKRTQLIAVLIDDYSNPWFIDLIQSLSDVLTPKGYRLSVIDSLTSQAGTDPITSALSMRPDGIIIAQDIPDFTVPDSLPPFVIAGTRITQASTHDSVANDDFRGAEIATKHLIDLGHTHIAHLRVGSGAGLRRFESFEATMRAHGLEPLSNDYLGPAVEHAGYTETLALLKEHPEVTAIFSSNDITAIGALGAARELGLRVPEDLSIIGYDNTPLAQTRLINLTTIDDNSIGVGYNAALLLLSMLDPEAPHPEIMHTLQPSLIERGTCAPREGHHHHHH | soluble
MSLRPVPSGQDPIKVVHYSDIHVDQLYTEGSNAKCNKPICCRQVKIIRHTHKSWTDFSRPFTENDEPGKTDSPAGPFGEHTCDSPVSLEHSMYQAIKEIVPDASFTIFTGDVVDHSIWNTTWDYNKHQIIESYENMDKHLGIVYGTAGNHESHPTNAYQPSSIGGASSWIYDLLAGAWSRWIGHEAASKAAQIGAYSTKFPHGNLRVISLNTNLYYRGNFWLFQRKMIRDPSKQFDWLIEELHAAEKAGERVYIIGHMPPGDRNAFHDQSNYLNQIVNRYSSTIAAMFFGHTHRDHFQITYSEAPKKSFSNALLTSYVGPSLTPTSGMPSFRVYDVDPITFAVLDATTYSADMNSPTYQTQGPVWKKYYSAKETYGEGHHHHHH | not soluble
MSLRTTESEKGLRMPGLPPMVAPPAEQVDDPVTATDAANAVDAVLRGVLDERLRHCRAVDPLFARELADRLAALTARGGKRLRTAFAHCGWRAAGGSGDATAVLRTGAALELLQACALVHDDVMDGSVQRRGAPALHVDLARGHWAAGMHGSSESFGTSAAVLTGDLALAWADDLLTETALGTPHGPRLHGEWRAMRTEMVAGQYRDLHAQAARSSGVDEALAIATLKSALYTVARPLALGAVLAGAADGDALEALRAAGRCAGLAFQLRDDLLGAFGDPALTGKPADDDLRSRKLTYLLAVAVRLADAADDHLAAAALAPDADPKSEKAVRQVRSALVRTGARDLVETKIGELTDMSLAHFDRCGARPAVRHEFAALIGRATGAVPRGTGEVVEGHHHHHH | soluble
MSLSAFFAHLHLHSEFSLQDGLIRVKPLMQAVAQAGMPAVALTDQGNLFGAVKFYRAAVNAGVKPIIGAEIRVADADASERPARLVLLCADTQGYRTLTRLLTRGYLEGQQQGVPVVDREWLRGRCAGLIGLSGGRVGDVGRALLSGEPALAARKLEFWREQFGDRYYLELQRTGRPGDEEHVQAAVELATAHGVAVVATNDVCFLRPEDEGHHHHHH | not soluble
MSLSAYSQVSIDKTMFVEGREFLHIDQAGWVAKESTSEEDNRMSKVQEMLSEKYQKDSFSIYVKQLTTGKEAGINQDEKMYAASVLKLSYLYYTQEKINEGLYQLDTTVKYVSAVNDFPGSYKPEGSGSLPKKEDNKEYSLKDLITKVSKESDNVAHNLLGYYISNQSDATFKSKMSAIMGDDWDPKEKLISSKMAGKFMEAIYNQNGFVLESLTKTDFDSQRIAKGVSVKVAHKIGDADEFKHDTGVVYADSPFILSIFTKNSDYDTISKIAKDVYEVLKEGHHHHHH | soluble
MSLSDDSMIDAPLTRADAVSEKIVFQDDFNQVDSIPDRNKWSLCKKGSPAWSKYLSESYDQAYVHDGKLVLVAEKVNGVYKTGGVQSLGKAEFQYGKIEICARFTKTAKGGWPAIWMMPAKPVYSGWPACGEIDIMEQLNHDGIVYQTIHSHYKNDLGFTKPVPTKTVSYNKGQFNIFGIEWTPEALTFKVNGATTLVYPNLHLADESVKKQWPFDTSFYLILNYALGGPGTWPGTIMDSELPAKMEIDWVKVSQPRGREGHHHHHH | soluble
MSLSDSENGGSKTAILCNDLADSYLESYPTVTLEDGVTRTYHNGVYQECRNKYIINNRMMDIAEDMGIVLTPKQIQDALEIVRNKTPFTESKTPINLIPVGNGVLDINTMELSDYSPETVLLTKFPRDYNPSAATPSKFMEMLNTTFDGSEEQIKLVQEMFGYCFLRSYFLEVIFFLIGNGRNGKTTLLSILGALLGGEESGHISSLSFKDLSEPKNENMLCDLYGRYANICGDTGKHKIKETDYIKKVTGNDFVRARKLYKDSFNFKSFAKVILAFNQLPEVDDFSDGFKRRIRIIEFNHKFEDGAGANKNIEAEITGDEEEMEGIFLWAMEGLKRILENNSFSDKRSIVSRGMEYARKSNPMHYFVRECIVESPGHFVNKADLIEKYVEYAEYNKMPQLTPQAFKKGLIAECTDISINTFEKRDQTKTGRPFGFMHIDIDLESWKKHTGKADNASPVEPKEDSKQTQFKELEIQIATTDEEIRKVAEDMASTASEGHHHHHH | soluble
